From the Human Domainome abundance scans (Beltran et al. 2025)
± gives the uncertainty stated by the source.

B1: V(D)J recombination-activating protein 2, residues 415 to 491; numbered along this chain, P55895 (parent)
chain: YWITCCPTCDVDINTWVPFYSTELNKPAMIYCSHGDGHWVHAQCMDLAERTLIHLSAGSNKYYCNEHVEIARALHTP

Variants of: B1
Assay: abundance fitness (aPCA) (normalised: wild type 0, dead -1); higher = more abundant; growth selection in yeast, the domain comes from the species named
Details: Homo sapiens

| Variant | abundance fitness |
| --- | --- |
| S21V | -0.28 ± 0.12 |
| T15I | -0.104 ± 0.3 |
| Y20A | -0.539 ± 0.35 |
| Y20E | -0.576 ± 0.3 |
| T76G | -0.057 ± 0.056 |
| T76L | -0.029 ± 0.078 |
| T76M | -0.034 ± 0.089 |
| M45D | -0.193 ± 0.21 |
| M45E | -0.265 ± 0.13 |
| M45Q | 0.032 ± 0.057 |
| M45T | -0.395 ± 0.099 |
| T51L | 0.016 ± 0.058 |
| T51R | 0.034 ± 0.054 |
| T51P | -0.203 ± 0.098 |
| I30K | 0.147 ± 0.23 |
| I70M | 0.02 ± 0.077 |
| I70G | -0.045 ± 0.053 |
| I70F | -0.002 ± 0.091 |
| I70N | -0.169 ± 0.18 |
| A73I | -0.042 ± 0.098 |
| A73Y | -0.109 ± 0.17 |
| A73E | -0.009 ± 0.1 |
| A73D | 0.019 ± 0.12 |
| M29I | -0.234 ± 0.29 |

| Variant | abundance fitness |
| --- | --- |
| C44P | -0.943 ± 0.12 |
| C44V | -1.11 ± 0.14 |
| C44N | -0.732 ± 0.32 |
| C44W | -0.98 ± 0.14 |
| D10K | -0.089 ± 0.18 |
| D10W | 0.045 ± 0.12 |
| D10L | 0.102 ± 0.2 |
| V68E | -0.439 ± 0.22 |
| V68P | -0.125 ± 0.25 |
| V68M | -0.087 ± 0.2 |
| W2G | -0.342 ± 0.051 |
| W2M | -0.226 ± 0.052 |
| W2Y | 0.055 ± 0.1 |
| W2E | -0.231 ± 0.076 |
| W2K | -0.162 ± 0.13 |
| W2A | -0.39 ± 0.07 |
| E23D | 0.122 ± 0.17 |
| E23G | -0.372 ± 0.17 |
| E23S | -0.805 ± 0.23 |
| I53C | -0.056 ± 0.12 |
| I53S | 0.049 ± 0.086 |
| I53W | -0.124 ± 0.12 |
| I53Y | -0.133 ± 0.1 |
| I53H | -0.069 ± 0.18 |

| Variant | abundance fitness |
| --- | --- |
| S59Y | -0.031 ± 0.12 |
| S59P | 0.062 ± 0.091 |
| S59V | -0.068 ± 0.068 |
| S59K | 0.053 ± 0.11 |
| S59G | 0.019 ± 0.044 |
| L55A | -0.108 ± 0.07 |
| L55F | -0.06 ± 0.12 |
| L55T | -0.174 ± 0.069 |
| L55W | -0.086 ± 0.053 |
| L55G | -0.18 ± 0.047 |
| L55R | -0.111 ± 0.036 |
| F19P | -0.509 ± 0.15 |
| F19Y | 0.08 ± 0.42 |
| H34K | -0.211 ± 0.14 |
| H34D | -0.095 ± 0.13 |
| H34Y | -0.101 ± 0.12 |
| H34T | -0.234 ± 0.11 |
| H34F | -0.301 ± 0.18 |
| A42W | -0.643 ± 0.067 |
| A42T | -0.744 ± 0.12 |
| W39I | -0.278 ± 0.078 |
| W39N | -0.274 ± 0.1 |
| W39R | -0.185 ± 0.029 |
| W39G | -0.54 ± 0.034 |

| Variant | abundance fitness |
| --- | --- |
| N60K | -0.114 ± 0.12 |
| N60Q | -0.069 ± 0.08 |
| N60V | -0.04 ± 0.068 |
| N60P | -0.118 ± 0.08 |
| A48V | -0.009 ± 0.054 |
| A48G | -0.078 ± 0.076 |
| A48W | -0.04 ± 0.089 |
| D36R | -0.246 ± 0.094 |
| D36Q | 0.055 ± 0.19 |
| D36G | -0.04 ± 0.17 |
| D36N | -0.211 ± 0.23 |
| N14K | -0.004 ± 0.42 |
| N14A | -0.509 ± 0.4 |
| N14P | -0.346 ± 0.49 |
| C5G | -0.392 ± 0.2 |
| C5A | -0.616 ± 0.41 |
| Y62K | -0.6 ± 0.21 |
| Y62M | -0.206 ± 0.19 |
| Y62F | -0.003 ± 0.12 |
| Y62Q | -0.312 ± 0.12 |
| Y62A | -0.328 ± 0.08 |
| L52A | -0.144 ± 0.082 |
| L52S | -0.262 ± 0.07 |
| L52V | -0.033 ± 0.074 |

| Variant | abundance fitness |
| --- | --- |
| L52N | -0.304 ± 0.28 |
| L52P | -0.423 ± 0.083 |
| G37K | -0.785 ± 0.37 |
| Y1Q | -0.283 ± 0.22 |
| Y1S | -0.084 ± 0.053 |
| Y1N | -0.252 ± 0.17 |
| Y1K | -0.365 ± 0.17 |
| N25T | -0.05 ± 0.17 |
| N25W | -0.024 ± 0.2 |
| N25E | 0.167 ± 0.17 |
| N25C | -0.309 ± 0.15 |
| N25D | -0.297 ± 0.33 |
| P27L | -0.861 ± 0.21 |
| P27H | -0.741 ± 0.5 |
| P27F | -0.515 ± 0.46 |
| P27C | -0.938 ± 0.32 |
| Y63S | -0.18 ± 0.095 |
| Y63F | -0.002 ± 0.13 |
| Y63W | 0.115 ± 0.12 |
| Y63K | -0.005 ± 0.096 |
| C6R | -0.432 ± 0.17 |
| C6F | -0.304 ± 0.48 |
| C6G | -0.024 ± 0.39 |
| C6S | 0.209 ± 0.19 |

| Variant | abundance fitness |
| --- | --- |
| C6K | -0.28 ± 0.16 |
| D12T | -0.226 ± 0.24 |
| D12M | 0.009 ± 0.14 |
| D12L | -0.332 ± 0.11 |
| T4I | -0.016 ± 0.1 |
| T4L | -0.049 ± 0.053 |
| L24Y | -0.337 ± 0.32 |
| L24S | -0.153 ± 0.099 |
| L24Q | -0.1 ± 0.18 |
| L24P | -0.56 ± 0.39 |
| T8A | -0.437 ± 0.17 |
| T8E | 0.058 ± 0.17 |
| T8D | -0.279 ± 0.35 |
| T8N | 0.091 ± 0.18 |
| H67W | -0.484 ± 0.055 |
| H67D | -0.424 ± 0.1 |
| H67V | -0.387 ± 0.048 |
| H67I | -0.874 ± 0.31 |
| Q43E | -0.344 ± 0.25 |
| Y31P | -0.245 ± 0.093 |
| Y31E | -0.018 ± 0.095 |
| Y31G | -0.337 ± 0.069 |
| Y31H | -0.061 ± 0.18 |
| Y31M | 0.004 ± 0.072 |

| Variant | abundance fitness |
| --- | --- |
| Y31I | -0.649 ± 0.26 |
| Y31S | -0.188 ± 0.063 |
| A71N | -0.121 ± 0.1 |
| A71V | -0.003 ± 0.051 |
| A71M | -0.12 ± 0.1 |
| A71T | 0.09 ± 0.1 |
| G35S | -0.136 ± 0.11 |
| G35K | 0.042 ± 0.28 |
| E66C | 0.023 ± 0.11 |
| E66R | -0.127 ± 0.058 |
| E66G | 0.006 ± 0.054 |
| E66V | -0.105 ± 0.06 |
| E66A | -0.025 ± 0.064 |
| E66W | -0.192 ± 0.078 |
| E66Q | -0.057 ± 0.12 |
| E66N | -0.381 ± 0.21 |
| E66H | -0.22 ± 0.17 |
| A28S | -0.035 ± 0.15 |
| A28W | -0.116 ± 0.19 |
| A28C | -0.117 ± 0.2 |
| A28V | -0.155 ± 0.14 |
| A28F | -0.183 ± 0.2 |
| A28M | -0.213 ± 0.28 |
